Data taken from patent publication US6323311A, “Synthesis of insulin derivatives” (University of Utah Research Foundation, priority 1999, dated 2001).
Where two headings read alike, the source gives them in different places.

Experiments:
[1] = Accelerated shaking test, physical stability of mCE-PEG insulin conjugates (fibril formation/precipitation); format: physicochemical; conditions: 87 μM, 37° C., shaker 100 strokes/min, n=14 vials
Experimental: The long term physical stability of PEG-insulin derivatives was examined by their tendency to form fibrils in the accelerated shaking test at a concentration of 87 μM. Aggregation was evaluated in 5 ml borosilicate glass vials (1.2 ml filling volume) at 37° C., in a shaker at 100 strokes/min. Individual vials (n=14) were withdrawn at determined times, and the remaining soluble fraction of particular PEG-insulin derivatives was determined after filtration (PVDF membrane, 0.22 μm) using UV spectroscopy and/or HPLC. In parallel, vials were checked visually on a daily basis for the presence of turbidity and/or a precipitate, which was an independent indication that physical aggregation had occurred.

male Sprague-Dawley rats = test: Biological activity of mCE-PEG insulin conjugates, blood glucose depression in rat after i.v. injection; format: in vivo; conditions: from blood glucose AUC vs unmodified human insulin, fresh solution in PBS 20 μg/ml
Experimental: The biological activity of mCE-PEG-substituted insulin conjugates was tested in a rat model (male Sprague-Dawley rats, 250±50 g) by measuring blood glucose depression levels. The animals were fasted overnight (16 hours) prior to the experiment. In the morning, the rats were anesthetized with intraperitoneally administered sodium pentobarbital. Each animal received an i.v. injection (tail vein) of the particular insulin derivative (20 μg/ml NS/kg). Blood samples were taken from the jugular vein 15 and 5 minutes before injection and 15, 30, 60, 90, 120, 180, and 240 minutes after injection. Blood glucose levels were measured with an Accucheck III blood glucose monitor (Boehringer Mannheim). Bioactivities of insulin derivatives were calculated from AUC (area under curve) values, and the AUC value for the same dose of unmodified human insulin.

[2] = system: Inbred A/J and C57BL/10ScSn mice; conditions: intraperitoneal, 3 x 5 μg
Experimental: Inbred A/J and C57BL/10ScSn mice, 12 weeks old, were used throughout the experiments. Mice (10 per experimental group) were immunized intraperitoneally with 5 μg samples on day 0. Samples were injected either in soluble form (dissolved in PBS, pH 7.4) or as a precipitate (alum precipitate). After 3 weeks, the mice were given a secondary injection, and after another 3 weeks, a third injection. Eight days after the last immunization, the mice were exsanguinated and the serum was separated and stored at -80° C. The specific antibody level in the serum was determined by an ELISA indirect method as described in 44 J. Clin. Lab. Immunol. 191-241 (1994).

[3] = strain A/J, Soluble formulation
[4] = strain B10, Soluble formulation

| Substance | Days to Precipitation ± S.D. [1] [days] | Biological Activity ± S.D. (male Sprague-Dawley rats) [IU/mg] | Antibody Titres ([2]; strain A/J, Alum ppt.) | Antibody Titres [2, 3] | Antibody Titres ([2]; strain B10, Alum ppt.) | Antibody Titres [2, 4] |
| --- | --- | --- | --- | --- | --- | --- |
| GlyA1-LysB29-di-mCE-PEG insulin [A1-B29-(PEG600)2 Insulin] | 8.4 ± 1.3 | 19.1 ± 3.6 | – | – | – | – |
| GlyA1-LysB29-di-mCE-PEG insulin [A1-B29-(PEG2000)2 Insulin] | – | 10.6 ± 2.1 | – | – | – | – |
| GlyA1-PheB1-LysB29-tri-mCE-PEG insulin [A1-B1-B29-(PEG600)3 Insulin] | 35.9 ± 5.3 | 5.3 ± 1.1 | 0 log2 of serum dilution | 0 log2 of serum dilution | 0 log2 of serum dilution | 0 log2 of serum dilution |
| GlyA1-PheB1-di-mCE-PEG insulin [A1-B1-(PEG600)2 Insulin] | 26.4 ± 4.6 | 16.2 ± 3.2 | – | – | – | – |
| GlyA1-PheB1-di-mCE-PEG insulin [A1-B1-(PEG2000)2 Insulin] | 19.3 ± 2.3 | – | – | – | – | – |
| GlyA1-mCE-PEG insulin [A1-PEG600 Insulin] | – | 22.2 ± 4.2 | – | – | – | – |
| GlyA1-mCE-PEG insulin [A1-PEG2000 Insulin] | – | 15.7 ± 3.1 | – | – | – | – |
| PheB1-mCE-PEG insulin [B1-PEG600 Insulin] | 22.0 ± 4.6 | 22.8 ± 4.2 | 6.1 log2 of serum dilution | 0 log2 of serum dilution | 9.5 log2 of serum dilution | 0 log2 of serum dilution |
| PheB1-mCE-PEG insulin [B1-PEG2000 Insulin] | – | 15.4 ± 2.6 | 0 log2 of serum dilution | 0 log2 of serum dilution | 0 log2 of serum dilution | 0 log2 of serum dilution |
